B1: Fab1H (anti-Asf1 Fab, wild-type switch region) (Fab, V domains shown)
VH: EVQLVESGGGLVQPGGSLRLSCAASGFNVSYSSIHWVRQAPGKGLEWVAYIYPSSGYTSYADSVKGRFTISADTSKNTAYLQMNSLRAEDTAVYYCARSYSTKLAMDYWGQGTLVTVSS
VL: DIQMTQSPSSLSASVGDRVTITCRASQSVSSAVAWYQQKPGKAPKLLIYSASSLYSGVPSRFSGSRSGTDFTLTISSLQPEDFATYYCQQSQWYPITFGQGTKVEIK
B2: Fab1H-FNQIKG (Fab, V domains shown)
VH: EVQLVESGGGLVQPGGSLRLSCAASGFNVSYSSIHWVRQAPGKGLEWVAYIYPSSGYTSYADSVKGRFTISADTSKNTAYLQMNSLRAEDTAVYYCARSYSTKLAMDYWGQGTLVTVFN
VL: DIQMTQSPSSLSASVGDRVTITCRASQSVSSAVAWYQQKPGKAPKLLIYSASSLYSGVPSRFSGSRSGTDFTLTISSLQPEDFATYYCQQSQWYPITFGQGTKVEIK
B3: Fab1H-VSRRLP (Fab, V domains shown)
VH: EVQLVESGGGLVQPGGSLRLSCAASGFNVSYSSIHWVRQAPGKGLEWVAYIYPSSGYTSYADSVKGRFTISADTSKNTAYLQMNSLRAEDTAVYYCARSYSTKLAMDYWGQGTLVTVVS
VL: DIQMTQSPSSLSASVGDRVTITCRASQSVSSAVAWYQQKPGKAPKLLIYSASSLYSGVPSRFSGSRSGTDFTLTISSLQPEDFATYYCQQSQWYPITFGQGTKVEIK

Each binder was assayed against histone chaperone Anti-silencing factor 1 (Asf1) (Saccharomyces cerevisiae S288c) (assay: crystal structure).
Sequence of histone chaperone Anti-silencing factor 1 (Asf1) (Saccharomyces cerevisiae S288c) (P32447 2-154): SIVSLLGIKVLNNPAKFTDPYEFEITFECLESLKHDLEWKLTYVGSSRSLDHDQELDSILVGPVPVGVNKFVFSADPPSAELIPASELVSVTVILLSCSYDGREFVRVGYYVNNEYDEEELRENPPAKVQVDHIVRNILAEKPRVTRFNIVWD
B1: binds. B2: binds. B3: binds.
